In patent US20140120555A1 (PIERRE FABRE MEDICAMENT, published 2014) one finds Kd, koff and kon data, which are given here for 1 molecule.

For the assay, the target named is T1, Recombinant human FcγRIIIA variant V [CD16a], Gln17-Gln208 with C-terminal 6-His tag (human, UniProt P08637 17-208).
T1 construct: range 17-208; 'variant V' is given without a position, so no substitution is written; also called h-FcγRIIIA
Put plainly: SPR (Biacore X): h-FcγRIIIA injected over hz515H7VH1D76NVL2 Mab immobilized on a CM4 sensorchip; heterogeneous ligand model, minor component (21%). The method, then: 1964 RU of hz515H7VH1D76NVL2 Mab were immobilized using the amine coupling kit chemistry on the second flowcell (FC2) of a CM4 sensorchip. The first flowcell (FC1) activated by NHS and EDC mixture and des-activated by ethanolamine served as the reference surface to check and subtract the non specific interaction between the analyte (Fc gamma receptors) and the sensorchip matrix.
The kinetic experiments were carried out at 25° Celsius at a flow rate of 30 μl/min. The HBS-EP buffer was used either as the running buffer or for the preparation of analyte solutions. The analyte solutions were injected during 90 seconds (association phase) with a 90 seconds delay (dissociation phase). An injection of running buffer as analyte was used as a double reference. All the sensorgrams were corrected by this double reference sensorgram.
Sensorgrams obtained with h-FcγRIIIA [FIG. 16] were clearly not fitted by the Langmuïr model (Chi2/Rmax>20%). […] According to this model, the hz515H7VH1D76NVL2 Mab Fc domain may be regarded as a mixture of two components. […] According to the literature, the heterogeneity observed with h-FcγRIIIA was probably linked to the glycosylation heterogeneity on the Mab Fc domain.

T1 sequence (P08637 other isoform, or with tags, fused parts or gaps mutant limits assumed, form in doubt): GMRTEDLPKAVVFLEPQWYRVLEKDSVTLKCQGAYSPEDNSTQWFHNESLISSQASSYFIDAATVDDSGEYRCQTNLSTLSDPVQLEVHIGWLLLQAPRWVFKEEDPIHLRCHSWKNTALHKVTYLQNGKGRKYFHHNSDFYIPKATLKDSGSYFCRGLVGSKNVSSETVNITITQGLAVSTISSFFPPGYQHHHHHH

B1: humanized antibody Hz515H7 VH1 D76N VL2 (antibody, human IgG1, kappa)
heavy: not shown
light: DIVMTQSPSSLAVSLGERATMSCKSSQSLFNSRTRKNYLAWYQQKPGQSPKLLIYWASARDSGVPARFTGSGSETYFTLTISRVQAEDLAVYYCMQSFNLRTFGQGTKVEIKRTVAAPSVFIFPPSDEQLKSGTASVVCLLNNFYPREAKVQWKVDNALQSGNSQESVTEQDSKDSTYSLSSTLTLSKADYEKHKVYACEVTHQGLSSPVTKSFNRGEC
notes: IgG1/kappa; also called hz515H7VL2; hz515H7-1
As a reminder, the Kd is the constant that tells how readily two partners part at equilibrium. Broadly, the koff is a measure of how fast the partners let go of each other. In general, kon refers to a measure of how fast the partners come together. For B1, the Kd turned out to be 29.3 nM, the dissociation rate constant (koff) was 0.0155 s⁻¹ and the kon is 529000 M⁻¹ s⁻¹.
